Data published in patent US20210380685A1.

Assays:
[1] = target: LRID Fab fused to the transmembrane portion of glycophorin A, on SP2/0 cells (Fab-GlycoA); test: cell-based or functional assay
[2] = target: LRID Fab fused to the GPI signal sequence from decay accelerating factor, on SP2/0 cells (Fab-GPI); test: cell-based or functional assay
Chain of LRID Fab fused to the GPI signal sequence from decay accelerating factor, on SP2/0 cells (Fab-GPI) (VH, as listed by the source limits assumed, chain 1 of 2): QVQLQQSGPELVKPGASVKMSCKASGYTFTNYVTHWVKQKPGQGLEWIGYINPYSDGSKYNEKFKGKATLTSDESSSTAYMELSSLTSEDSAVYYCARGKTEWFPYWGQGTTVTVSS
Chain of LRID Fab fused to the GPI signal sequence from decay accelerating factor, on SP2/0 cells (Fab-GPI) (VL, as listed by the source limits assumed, chain 2 of 2): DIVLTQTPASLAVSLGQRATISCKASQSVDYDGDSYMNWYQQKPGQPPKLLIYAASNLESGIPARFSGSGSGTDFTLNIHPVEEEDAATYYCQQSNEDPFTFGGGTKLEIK

Chain of LRID Fab fused to the transmembrane portion of glycophorin A, on SP2/0 cells (Fab-GlycoA) (VH, as listed by the source limits assumed, chain 1 of 2): as the sequence (VH, as listed by the source limits assumed, chain 1 of 2) above
Chain of LRID Fab fused to the transmembrane portion of glycophorin A, on SP2/0 cells (Fab-GlycoA) (VL, as listed by the source limits assumed, chain 2 of 2): as the sequence (VL, as listed by the source limits assumed, chain 2 of 2) above

B1: SM03 (antibody, V domains shown)
VH: QVQLQESGGGLVKPGGSLKLSCAASGFAFSIYDMSWVRQTPEKRLEWVAYISSGGGTTYYPDTVKGRFTISRDNAKNTLYLQMSSLKSEDTAMYYCARHSGYGSSYGVLFAYWGQGTLVTVSS
VL: DIQLTQTTSSLSASLGDRVTISCRASQDISNYLNWYQQKPDGTVKLLIYYTSILHSGVPSRFSGSGSGTDYSLTISNLEQEDFATYFCQQGNTLPWTFGGGTKLEIKR
modifications: here or on the partner: Held on the SP2/0 cell surface by the glycophorin A transmembrane portion; this part is not in the letters.
Q: Which CMC activities, maximum killing [1] does the source give for B1 here?
A: Its CMC activities, maximum killing is > 90%.

Q: What about the CMC killing of surrogate target cells, EC50 [1] of the same binder?
A: Its CMC killing of surrogate target cells, EC50 is 0.13 mg/mL.

Q: And the CMC activities, maximum killing [2]?
A: The CMC activities, maximum killing was > 90%.

Q: And the CMC killing of surrogate target cells, EC50 [2]?
A: Its CMC killing of surrogate target cells, EC50 is 0.22 mg/mL.
